Assay results: the supplement of paper PMC12764529
± gives the half width of the 95% confidence interval.

Assays:
[1] = folding stability dG unfold from trypsin proteolysis; higher = more stable
In short: (§1)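 Designed mini-proteins (under 80 residues, no cysteine) in a PA-tagged cDNA display construct were digested with trypsin and chymotrypsin. Each protease was used at 11 concentrations (threefold dilutions) plus a no-protease condition, followed by sequencing. K50 was inferred by Bayesian fitting of sequencing counts, and unfolding free energy was derived against a sequence-predicted unfolded-state K50 and a shared folded-state K50, per protease or combined. Only designs with AlphaFold2 dimer inter-PAE above 15 were kept.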

[2] = folding stability dG unfold from chymotrypsin proteolysis; higher = more stable
In short: as §1

[3] = folding stability dG unfold (combined trypsin and chymotrypsin); higher = more stable
In short: as §1

Sequence | folding stability dG unfold [1] | folding stability dG unfold [2] | folding stability dG unfold [3]
SAGPKMKPIPFEFRNPDNGHKVKISVYYNPNGKRKIMITNPGDGRIYTFKINPGGIEIEKEIPLDDIKFSAG [r5_619_TrROS] | 1.13 ± 0.13 kcal/mol | 0.857 ± 0.67 kcal/mol | 0.83 ± 0.36 kcal/mol
SAGGSSPLLSPVTLTREVPASEPMAPEEVEAFAAAVAAEVAAAGMTVDFSVERHPDREVLTVTVTVASSAGG [r13_442_JUSTAS] | -0.372 ± 0.1 kcal/mol | 0.678 ± 0.046 kcal/mol | 0.373 ± 0.056 kcal/mol
SAGGSAGGKKVIVKIKIKVKDKETGEEKEIEITLEFETEEEAKAAIEALKALPPGVEIKIELLPSAGGSAGG [r6_999_TrROS_Hall] | 4.42 ± 0.21 kcal/mol | 2.72 ± 0.097 kcal/mol | 4.19 ± 0.28 kcal/mol
SAGGSAGGSAGKPKKKPPKPKIETKTITVTITNKDGSKTTVTATIVRNKDTNELFIRISSSAGGSAGGSAGG [r11_1024_TrROS_Hall] | 3.07 ± 0.16 kcal/mol | 3.13 ± 0.12 kcal/mol | 2.98 ± 0.22 kcal/mol
SAGGSAGGSDPEFELVRVEVFPFPTATLVRAVARFPPTDEYVEVELVHFPVPDRVLLRVRLLPSAGGSAGGS [r12_14_TrMRF] | 3.07 ± 0.064 kcal/mol | 3.93 ± 0.071 kcal/mol | 3.58 ± 0.097 kcal/mol
KKKYLVLLEARPRLYEFDENGKLIREIPLLVPFIGEGNDPEKVKEAAEKLFGEEVKILEVFPLEEVEEGKIS [r1_493_TrMRF] | 1.85 ± 0.065 kcal/mol | 2.692 ± 0.017 kcal/mol | 2.4 ± 0.072 kcal/mol
SAGGSAGGSAKKKILVKKPDGRLLLIEIDKDKPNTVRIYDIDTGKKIELSVEDLKKLKIKKSAGGSAGGSAG [r3_451_TrROS_Hall] | 1.57 ± 0.034 kcal/mol | 2.35 ± 0.052 kcal/mol | 2.08 ± 0.052 kcal/mol
SEALEKAAEAGVKTIYVYVKPGDLEEIKRLKALDVKIVLYATEEIPPEAFEALPGVKVEKVEWISPEELPSA [r9_671_TrMRF] | 0.759 ± 0.023 kcal/mol | 2.08 ± 0.052 kcal/mol | 1.65 ± 0.1 kcal/mol
SAGGTKTINIKNMPPNDPERMVRTARHLLKELKQKGPGKTITIHMDNPWAREVAEYLKKEGIPIEVHSAGGS [r16_450_TrROS] | 0.581 ± 0.17 kcal/mol | 1.09 ± 0.15 kcal/mol | 0.947 ± 0.14 kcal/mol
SAGGSAGGSGMTLEEIAERLKEEYNAPEVKVTRDPSKPVYTVTVTLADGSTKTYTIYVPEELGSAGGSAGGS [r12_114_JUSTAS] | 2.63 ± 0.047 kcal/mol | 3.73 ± 0.051 kcal/mol | 3.44 ± 0.092 kcal/mol
SAKKVIIEVKSLEELLKAAKEAAKKGEKVEVLVKLKDGYYVKITMEFDKKTKKIKIKKIEIKPIKKEDLSAG [r14_455_TrROS_Hall] | 2.51 ± 0.12 kcal/mol | 2.75 ± 0.21 kcal/mol | 2.46 ± 0.38 kcal/mol
SAGGKTLVITVEAPPEDWDKILELAREALELGGDVVVVAPFPDGLTVTVRAEKPLGKIVEVTVAPDDASAGG [r13_873_TrMRF] | 0.578 ± 0.053 kcal/mol | 1.5 ± 0.071 kcal/mol | 1.15 ± 0.095 kcal/mol
SSSSTLVSSYTLTLKDEKGNEITLKVDVYKFPSGSYRVEITRPDGTVTEYEFPASEPPTEEKIKELALKKSA [r9_616_JUSTAS] | 4.47 ± 0.46 kcal/mol | 6.01 ± 0.13 kcal/mol | > 6 kcal/mol
SAGGSAGGSAGGVDPTPDGILRVRVVIKDPNGDVFSEKEVEMTPEELEALKKAGYVILESAGGSAGGSAGGS [r10_749_JUSTAS] | 1.43 ± 0.033 kcal/mol | 2.022 ± 0.018 kcal/mol | 1.82 ± 0.054 kcal/mol
SAMKWSEVVVSYPSDRWYAEIYTPGPGGELTSVSYREFDSLEELEQWIEEKAPPGEVEVKREPAPPELLSAG [r14_964_JUSTAS] | 1.17 ± 0.033 kcal/mol | 0.722 ± 0.094 kcal/mol | 0.967 ± 0.051 kcal/mol
SAGGSAGGSEKVIVVPSEEALKALEDAGIEVKKIEVFTETVTYYYPPGFPPVTETRTYLLVEVSAGGSAGGS [r12_78_TrROS_Hall] | 1.45 ± 0.056 kcal/mol | 2.26 ± 0.072 kcal/mol | 1.96 ± 0.083 kcal/mol
SAGGSAGGSAGELSLEEIKKLAPDETAVVKLPPSPETIVITVSTNPNGTLKIEIKRYPPGSAGGSAGGSAGG [r11_13_JUSTAS] | 0.566 ± 0.037 kcal/mol | 0.657 ± 0.03 kcal/mol | 0.674 ± 0.1 kcal/mol
SAGGSAMTLEDLKDEFVVITLPDGTVVKAKVEEVDTKGPVLTILVGGKPILIPADAPVKIEIEPPKSAGGSA [r15_355_JUSTAS] | 1.74 ± 0.063 kcal/mol | 1.36 ± 0.033 kcal/mol | 1.53 ± 0.043 kcal/mol
SAGGKKKVIEIKIEIKVPKEELKNMTKEEIAELLKKELEKKGIKIKKIEIVEIEIDGDTVTITIRIELSAGG [r13_432_TrROS_Hall] | 2.18 ± 0.15 kcal/mol | 2.92 ± 0.2 kcal/mol | 2.72 ± 0.3 kcal/mol
SAGGMTIKPGETVEIEVGGKKITLTRNENGELTITIEDEETGETLTITVPKDTTLEEVLKKIEELLKSAGGS [r8_158_TrROS_Hall] | 4.04 ± 0.15 kcal/mol | 3.45 ± 0.064 kcal/mol | 3.61 ± 0.06 kcal/mol
SAGGSAGIAKKNNLTLKVTVEKKGDKLLVTVEITYPDGTKKTITIELNIKLVPEVPPVHPDEPGFGSAGGSA [r15_843_TrMRF] | 2.58 ± 0.17 kcal/mol | 2.83 ± 0.1 kcal/mol | 2.81 ± 0.095 kcal/mol
